# Results from paper PMC10541619 (bioRxiv, 2023).
# Target: the molecule itself
# Experiment: mass photometry
protein,measurement,value
"RADX-N (RADX 43-560, C-terminal truncation construct) (domain or fragment, human, UniProt Q6NSI4 43-560, looked up) RSWIQKVLEQIMDSPRQCVTPSEVVPVTVLAVQRYLLEDEPRDTVPKPPLYCYDVTISDGVYQEKCYLDPSLNSLVYQNILKVGIQMRISRVSCLYNEKRIGQGILCIDNVHCGETSDSISLETPFRNRAHQEKPERPLRGGKSHYLALWNNEDPYGDIWLTDKQPEEHNFSDTKIISLSHLEMTWTNRRNFPALLVRILHKSKLRYYGKPDKKMIEPYQTFLEVADSSGTVSVIMWNALCPEWYKSLRVGLVLLLQDYSVKKSYPFRIQPVPVDPQIKLISTMEICLNLRDPPTNIIIIPEKQVKPEWRLPKLNHRFTTRSELDDMPENCICDVIGLLVFVGRVQRSKKKENREDFWSYRWIHIADGTSEQPFIVELFSTSQPEIFENIYPMAYFVCTQLKVVRNDNQVPKLLYLTTTNESGVFITGHRGQPYTYDAKVKNFIQWIRTKSDSGEQKNMVIGGYYPYPPVPETFSKYSSSIKVESLLTAISEVRKEIEDLQYREQKRIAIQGIITAIK",stoichiometry N,2
